Source: the supplement of paper PMC10567573

B1: CSTF3 (parent)
chain: YVPEKVKKAEKKLEENPYDLDAWS

Variants of: B1
Experiment: protein stability index of a GFP-peptide fusion (GPS, HEK-293T) (PSI 1-6); higher = more stable
Conditions: c terminus: a fixed tail appended
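Also: lentivirally expressed fusions sorted by FACS into six bins by GFP to DsRed ratio, PSI derived from sequencing read proportions per bin multiplied by bin number.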

Protein stability index of substitutions, site by site:
V6: E 2, G 2.04, H 2.04, I 3.77, M 2.66, N 2.72, P 1.26, Q 2.35, R 1.35, S 2.15, T 1.58, W 2.57, Y 2.75
K7: A 2.17, C 2.12, D 2.54, E 2.56, F 2.26, G 1.91, H 3.08, I 2.17, L 3.11, M 1.52, N 3.83, P 3.13, Q 2, R 2.73, S 2.47, T 2.94, V 1.91, W 2.89, Y 2.48
K8: A 3.58, C 2.34, D 2.48, E 2.9, F 3.78, H 2.27, I 3.65, M 2.97, N 2.92, Q 3.12, R 2.54, S 3.26, T 2.37, V 2.21, W 3.37, Y 1.72
A9: C 2.11, D 1.65, E 1.96, F 3.1, G 3.46, H 2.85, I 2.59, K 2.59, L 2.32, M 2.16, P 4.02, Q 2.11, R 3.47, S 2.27, T 2.66, V 2.64, W 3.31, Y 3.21
E10: A 1.93, C 3.32, D 1.92, F 2.32, G 2.97, H 3.67, I 1.86, K 3.68, M 1.55, N 3.24, P 2, Q 3.08, R 2.63, S 2.56, T 1.74, V 2.18, W 1.98, Y 2.86
K11: A 2.32, C 2.65, D 2.07, E 2.54, F 2.06, G 2.01, I 3.43, L 2.31, M 2.42, N 2.67, P 2.65, Q 3.48, R 2.94, S 2.66, V 3.77, W 2.4, Y 2.72
K12: A 2.82, C 2.49, D 2.9, E 2.41, F 3.31, G 2.68, H 3.19, I 2.7, L 2.95, M 2.6, N 2.92, P 3.32, Q 3.16, R 2.88, S 3.79, T 3.28, V 2.59, W 2.9, Y 2.72
L13: A 2.25, D 2.22, E 2.86, F 2.02, G 2.23, H 2.49, I 3.1, K 2.5, M 3.19, P 2.46, Q 2.36, R 2.67, S 3.52, T 1.92, V 2.21, W 2.45, Y 1.87
E14: A 2.61, C 3.58, F 1.88, G 2.17, H 2.92, I 3.95, K 2.88, L 2.35, N 2.18, P 3.04, Q 2.02, R 2.36, S 3.27, T 2.26, V 2.25, W 3.09, Y 2.2
E15: A 3.94, C 2.68, D 2.86, F 2.55, G 2.88, H 2.05, K 3.45, L 3.23, M 2.99, P 2.47, Q 3.42, R 3.05, S 3.34
